Reference: US20140287419A1, “Compositions Having Dicamba Decarboxylase Activity and Methods of Use” (priority 2013, published 2014)
Where a chain is given by its changes, count along the chain named.

B1: 17 (protein)
chain: MARGKIALEEAFEVKGMDEEIDAQAALYIAPKDVERYKRQIVSITDERLQLSDQNGIGYSILSLTVPGIQGITDKDKAEKRARDVNNYIHDQIKDHRDRLGAFAALSMHDPRQAGHELRRCVKELGFHGALLNDVQHTGEGDDDQPLFYDQPDYDEFWRVAVELDVPVYLHPAAPLRDTLIYKQSYEDRKYLVGPPQSYCNGVALHLMGIIVNGVFDRFPNLKVIVGHMGERIPFDFWRMDHWVKGVTRPLAEKNGDTVCQKEPLYYFKRNIYITTSGHFSTQNLRYLYEWLGDERMMFSVDFPYERMEHGCQWYDDDAEKIKEALGGRDGYLRVGRDNARRLFKLTKFKDCDAV
modifications: Aspergillus niger
B2: 18 (protein, listed as Legionella pneumophila)
chain: MAIVDFETHFITEACIDYLTQRQEVPKLVPELNGAYTMCFTPDVSLFHTSALMEELLSLNEQRLAIMDQAGVTIQVLSLTTINGIDSCPGDENKSTALAREVNDQLYSAIQKHPERFKGFASISPYDVKEGVKELERAISQLGFVGWLTHSNFGQDNYLDDKIYWPLLEAAESLNIPIYLHPNVPIMREFGKYGFALGGSALGFEFDTALCLMRMILGGVFDAFPKLKIMLGHLGETMPFLMERLDHLYRIPDLKPYRPSIQRIPSEVLRQNVYITTSGRFFVPALRYVLEVMGEDRVLFASDYPMESLLDATRFIQDSDLSNQTKQKIFSINAKNLNLI
B3: 19 (protein, listed as Talaromyces marneffei)
chain: MATPIITLEEHYISSAIRDASETDHYAVFPSQIISKLNTLSTERLQDLDNGHVSLQVISHGPGAQPPYLCQAANDELASAISANPTRFAGFALLPIAEPQLAVQELERCITQHKFVGALIDNHTNGQFYDDQKFWPVFEKAQELDAPIYVHPSYPDEESGVAAHYRGNYDDRIAAALGAYGWGWHSDTALSILRLFAAGLFDTYPNIKIIIGHMGEMLPFQLERVIGIASRFGRSRGLREVWTQNIWVTTSGMFALAPLACLLQTMPIERVLYSVDYPFSANEKGFAFLEEIKKSGLIKEGEDWERFLYKNAQELLKVNV
B4: 20 (protein, listed as Legionella pneumophila)
chain: B2 chain with E31D, K112R, I163T, S173G, P256A
B5: 21 (protein, listed as Agrobacterium tumefaciens)
chain: MAQGKVALEEHFAIPETLQDSAGFVPGDYWKELQHRLLDIQDTRLKLMDAHGIETMILSLNAPAVQAIPDRKKAIEIARRANDVLAEECARRPDRFLAFAALPLQDPDAATQELQRCVNDLGFVGALVNGFSQEGDGQTPLYYDLPQYRPFWGEVEKLDVPFYLHPRNPLPQDSRIYDGHPWLLGPTWAFAQETAVHALRLMASGLFDAHPRLNIILGHMGEGLPYMMWRIDHRNAWVKLPPRYPAKRRFVDYFNENFHITTSGNFRTQTLIDAILEIGADRILFSTDWPFENIDHASDWFNATTIAEADRVKIGRTNARRLFKLDGR
B6: 22 (protein, listed as Staphylococcus epidermidis)
chain: MAKSINFEEHYVVDDIQKETMKYMSSDPNGVPMQTMLKGLEQKSGFTNADDITKHDERIKFMDEHDVEMQVLSYGNGAPSNLEGERAIELCQQANDTLAKYVNEHPDRFVGFATLPINEPQAAVEEFKRCIKELGFKGALIMGHPKNGFLDQDQYDDLFATAEALNVPIYLHPSPVQSDVYQAYYKGNYSDVTAATFACFGYGWHVDVGIHAIHLVLSGVFDRHPNLNMIIGHWGEFVPFFLERMDDILFADHLEHPISYYFKNNFYITPSGMLTKPQFDLVKAEVGVDRILYSADYPYVEPDKLGTFLDELDLTEEEKEKISYKNGAKLLGLEK

test: 14C assay with IPTG-induced recombinant E. coli cells (14CO2 capture from [14C]-carboxyl-labeled dicamba); conditions: IPTG-induced recombinant E. coli cells; [14C]-carboxyl-labeled dicamba; 14CO2 capture

| Molecule | Dicamba Decarboxylase Activity |
| --- | --- |
| B1 | Low |
| B2 | Low |
| B3 | High |
| B4 | Low |
| B5 | High |
| B6 | High |

same assay, conditions: dicamba decarboxylation activity of the protein of the given SEQ ID NO

| Molecule | Enzymatic Detection level |
| --- | --- |
| B1 | Low |
| B2 | Low |
| B3 | High |
| B4 | Low |
| B5 | High |
| B6 | High |
